According to US20240343817A1 (STAIDSON BEIJING BIOPHARMACEUTICALS, published 2024):

Target: human CD40 on cells (human, UniProt P25942 21-277)
Test: cell-based or functional assay

human CD40 on cells, sequence (P25942 21-277 limits assumed): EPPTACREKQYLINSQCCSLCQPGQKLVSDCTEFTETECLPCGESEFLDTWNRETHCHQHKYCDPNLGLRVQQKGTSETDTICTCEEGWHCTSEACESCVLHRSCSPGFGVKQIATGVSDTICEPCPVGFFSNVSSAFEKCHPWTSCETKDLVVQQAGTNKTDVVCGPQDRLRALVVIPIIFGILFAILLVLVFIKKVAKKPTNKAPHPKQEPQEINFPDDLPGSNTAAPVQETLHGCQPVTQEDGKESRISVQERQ

Binder	IC50, HEK-Blue CD40L NF-κB activation assay (SEAP), antibody as human IgG4 [µg/mL]
D22 (antibody, human IgG4, V domains shown) VH: QVQLVQSGAEVKKPGASVKVSCKASVYSFTGYTVNWVRQAPGQRLEWMGLINPYTGGTTYNQKFKGRVTLTIDKSASTAYMELSSLRSEDTAVYYCASSYYSKPYAMDYWGQGTLVTVSS VL: EIVMTQSPATLSVSPGERATLSCKASQNVHTRVAWYQQKPGQAPRLLIYLASDRRTGIPARFSGSGSGTEFTLTISSLQSEDFAVYYCLQHWTYPLTFGQGTKVEIK	0.0219
D32 (antibody, human IgG4, V domains shown) VH: QVQLVQSGAEVKKPGASVKVSCKASVYSFTGYTVNWVRQAPGQRLEWMGLINPYHGGTTYNQKFKGRVTLTIDKSASTAYMELSSLRSEDTAVYYCASSSYSNPYAMDYWGQGTLVTVSS VL: EIVMTQSPATLSVSPGERATLSCKASQNVHTRVAWYQQKPGQAPRLLIYLASDRRTGIPARFSGSGSGTEFTLTISSLQSEDFAVYYCLQHWNYPLTFGQGTKVEIK	0.0164
D37 (antibody, V domains shown) VH: QVQLVQSGAEVKKPGASVKVSCKASVYSFTGYTVNWVRQAPGQRLEWMGLIAPYNGGTTYNQKFKGRVTLTIDKSASTAYMELSSLRSEDTAVYYCALSYYSNPYAMDYWGQGTLVTVSS VL: EIVMTQSPATLSVSPGERATLSCKASQNVHTRVAWYQQKPGQAPRLLIYLASDRRTGIPARFSGSGSGTEFTLTISSLQSEDFAVYYCLQHWNYPLTFGQGTKVEIK	0.0211
D30 (antibody, human IgG4, V domains shown) VH: QVQLVQSGAEVKKPGASVKVSCKASVYSFTGYTVNWVRQAPGQRLEWMGLINPYNGGTWYNQKFKGRVTLTIDKSASTAYMELSSLRSEDTAVYYCASSMYSNPYAMDYWGQGTLVTVSS VL: EIVMTQSPATLSVSPGERATLSCKASQNVHTRVAWYQQKPGQAPRLLIYLASDRRTGIPARFSGSGSGTEFTLTISSLQSEDFAVYYCLQHWNYPLTFGQGTKVEIK	0.018
D24 (antibody, human IgG4, V domains shown) VH: QVQLVQSGAEVKKPGASVKVSCKASVYSFTGYTVNWVRQAPGQRLEWMGLINPKNGGTTYNQKFKGRVTLTIDKSASTAYMELSSLRSEDTAVYYCASSLYSNPYAMDYWGQGTLVTVSS VL: EIVMTQSPATLSVSPGERATLSCKASQNVHTRVAWYQQKPGQAPRLLIYLASDRRTGIPARFSGSGSGTEFTLTISSLQSEDFAVYYCLQHWNYPLTFGQGTKVEIK	0.0164
D27 (antibody, human IgG4, V domains shown) VH: QVQLVQSGAEVKKPGASVKVSCKASVYSFTGYTVNWVRQAPGQRLEWMGLIVPYNGGTTYNQKFKGRVTLTIDKSASTAYMELSSLRSEDTAVYYCASSGYSNPYAMDYWGQGTLVTVSS VL: EIVMTQSPATLSVSPGERATLSCKASQNVHTNVAWYQQKPGQAPRLLIYLASDRRTGIPARFSGSGSGTEFTLTISSLQSEDFAVYYCLQHWNYPLTFGQGTKVEIK	0.0298
D28 (antibody, human IgG4, V domains shown) VH: QVQLVQSGAEVKKPGASVKVSCKASVYSFTGYTVNWVRQAPGQRLEWMGLINPYSGGTTYNQKFKGRVTLTIDKSASTAYMELSSLRSEDTAVYYCASSYYSRPYAMDYWGQGTLVTVSS VL: EIVMTQSPATLSVSPGERATLSCKASQNVHTRVAWYQQKPGQAPRLLIYLASDRRTGIPARFSGSGSGTEFTLTISSLQSEDFAVYYCLQHWNSPLTFGQGTKVEIK	0.0124
D29 (antibody, human IgG4, V domains shown) VH: QVQLVQSGAEVKKPGASVKVSCKASVYSFTGYTVNWVRQAPGQRLEWMGLINPMNGGTTYNQKFKGRVTLTIDKSASTAYMELSSLRSEDTAVYYCASSYYSNPYAGDYWGQGTLVTVSS VL: EIVMTQSPATLSVSPGERATLSCKASQNVHTRVAWYQQKPGQAPRLLIYLASDRRTGIPARFSGSGSGTEFTLTISSLQSEDFAVYYCLQHWNRPLTFGQGTKVEIK	0.0342
D23 (antibody, human IgG4, V domains shown) VH: QVQLVQSGAEVKKPGASVKVSCKASVYGFTGYTVNWVRQAPGQRLEWMGLINPYNGGTTYNQKFKGRVTLTIDKSASTAYMELSSLRSEDTAVYYCASSYYSNPYANDYWGQGTLVTVSS VL: EIVMTQSPATLSVSPGERATLSCKASQNVHTAVAWYQQKPGQAPRLLIYLRSDRRTGIPARFSGSGSGTEFTLTISSLQSEDFAVYYCLQAWNYPLTFGQGTKVEIK	0.0169
D36 (antibody, human IgG4, V domains shown) VH: QVQLVQSGAEVKKPGASVKVSCKASVYSFTGYTVNWVRQAPGQRLEWMGLINPYNGGTTYNQKFKGRVTLTIDKSASTAYMELSSLRSEDTAVYYCASSRYSNPYAMDYWGQGTLVTVSS VL: EIVMTQSPATLSVSPGERATLSCKASQNVHTHVAWYQQKPGQAPRLLIYLASDRRTGIPARFSGSGSGTEFTLTISSLQSEDFAVYYCLQHWNYPLTFGQGTKVEIK	0.0212
D34 (antibody, human IgG4, V domains shown) VH: QVQLVQSGAEVKKPGASVKVSCKASVYSFTGYTVNWVRQAPGQRLEWMGLINPYNGGTTYNQKFKGRVTLTIDKSASTAYMELSSLRSEDTAVYYCASSYYSRPYAMDYWGQGTLVTVSS VL: EIVMTQSPATLSVSPGERATLSCKASQNVHTRVAWYQQKPGQAPRLLIYLASDRRTGIPARFSGSGSGTEFTLTISSLQSEDFAVYYCLQHWSYPLTFGQGTKVEIK	0.0338
D31 (antibody, human IgG4, V domains shown) VH: QVQLVQSGAEVKKPGASVKVSCKASVYSFTGYTVNWVRQAPGQRLEWMGLINPYNGGTSYNQKFKGRVTLTIDKSASTAYMELSSLRSEDTAVYYCASSYYSNPYAADYWGQGTLVTVSS VL: EIVMTQSPATLSVSPGERATLSCKASQNVHTRVAWYQQKPGQAPRLLIYLASDRRTGIPARFSGSGSGTEFTLTISSLQSEDFAVYYCLQHWNYPLTFGQGTKVEIK	0.0139
D35 (antibody, human IgG4, V domains shown) VH: QVQLVQSGAEVKKPGASVKVSCKASVYSFTGYLVNWVRQAPGQRLEWMGLINPYNGGTTYNQKFKGRVTLTIDKSASTAYMELSSLRSEDTAVYYCASSYYSNPYAMDYWGQGTLVTVSS VL: EIVMTQSPATLSVSPGERATLSCKASQNVHTAVAWYQQKPGQAPRLLIYLASDRRTGIPARFSGSGSGTEFTLTISSLQSEDFAVYYCLQHWNYPLTFGQGTKVEIK	0.0233
D38 (antibody, human IgG4, V domains shown) VH: QVQLVQSGAEVKKPGASVKVSCKASVYSFTGYTVNWVRQAPGQRLEWMGMINPYNGGTTYNQKFKGRVTLTIDKSASTAYMELSSLRSEDTAVYYCASSYYSVPYAMDYWGQGTLVTVSS VL: EIVMTQSPATLSVSPGERATLSCKASQNVHTRVAWYQQKPGQAPRLLIYLASDRRTGIPARFSGSGSGTEFTLTISSLQSEDFAVYYCLQHWNYPLTFGQGTKVEIK	0.0156
D25 (antibody, human IgG4, V domains shown) VH: QVQLVQSGAEVKKPGASVKVSCKASVYSFTGYVVNWVRQAPGQRLEWMGLINPYNGGTTYNQKFKGRVTLTIDKSASTAYMELSSLRSEDTAVYYCASSYYSNPYAMDYWGQGTLVTVSS VL: EIVMTQSPATLSVSPGERATLSCKASQNVHTAVAWYQQKPGQAPRLLIYLASDRRTGIPARFSGSGSGTEFTLTISSLQSEDFAVYYCLQHWNYPLTFGQGTKVEIK	0.0273
